The results in this text go back to article PMC7687109, “Effect of structural stability on endolysosomal degradation and T‐cell reactivity of major shrimp allergen tropomyosin” (Allergy, 2020).

Test in all cases: SEC-MALS; purified recombinant tropomyosin, neutral pH (pH 7.4), constant temperature of 25°C; molar mass from the peaks
A general note: Size exclusion chromatography separates by hydrodynamic size, large species first.

Series [1] has as its target Pen m 1 (black tiger shrimp tropomyosin) (Penaeus monodon).
For series [2], the target named is Der p 10 (house dust mite tropomyosin) (Dermatophagoides pteronyssinus).
Series [3] concerns the molecule itself.

In general, stoichiometry N refers to a count of units in the complex or per binding partner. On to “Pen m 1 (black tiger shrimp tropomyosin) (natural protein)”, for which, in series [1], the stoichiometry N worked out at 2.

Take “Der p 10 (house dust mite tropomyosin) (natural protein)”: in series [2], the stoichiometry N came to 2.

B1: Bla g 7 (German cockroach tropomyosin) (natural protein, Blattella germanica, UniProt Q9NG56 1-284, looked up)
chain: MDAIKKKMQAMKLEKDNAMDRALLCEQQARDANIRAEKAEEEARSLQKKIQQIENDLDQTMEQLMQVNAKLDEKDKALQNAESEVAALNRRIQLLEEDLERSEERLATATAKLAEASQAADESERARKILESKGLADEERMDALENQLKEARFMAEEADKKYDEVARKLAMVEADLERAEERAETGESKIVELEEELRVVGNNLKSLEVSEEKANLREEEYKQQIKTLNTRLKEAEARAEFAERSVQKLQKEVDRLEDELVHEKEKYKYICDDLDMTFTELIGN
Consider B1, for which the “stoichiometry N” value in series [3] came to 2.

B2: Ani s 3 (Anisakis tropomyosin) (natural protein, Anisakis simplex, UniProt Q9NAS5 1-284, looked up)
chain: MDAIKKKMQAMKIEKDNALDRADAAEEKVRQMTDKLERIEEELRDTQKKMMQTENDLDKAQEDLSTANSNLEEKEKKVQEAEAEVAALNRRMTLLEEELERAEERLKLATAKLEEATHTADESERVRKVMENRSFQDEERANTVESQLKEAQMLAEEADRKYDEVARKLTMVEADLERAEERAETGENKIVELEEELRVVGNNLKSLEVSEEKALQREDSYEEQIRTVSARLKEAETRAEFAERSVQKLQKEVDRLEDELVHEKERYKSISEELDQTFQELSGY
notes: also called fish parasite tropomyosin
In the case of B2, in series [3], the “stoichiometry N” value was 2.
